Two molecules from patent publication US20060281109, “Polymerases” (published 2006) can be followed below.

The target of data set [1] is T1, 9°N-7 YAV C223S exo- 71 deletion (C-terminus 704) (Thermococcus sp. 9°N-7) (UniProt Q56366).
T1 sequence: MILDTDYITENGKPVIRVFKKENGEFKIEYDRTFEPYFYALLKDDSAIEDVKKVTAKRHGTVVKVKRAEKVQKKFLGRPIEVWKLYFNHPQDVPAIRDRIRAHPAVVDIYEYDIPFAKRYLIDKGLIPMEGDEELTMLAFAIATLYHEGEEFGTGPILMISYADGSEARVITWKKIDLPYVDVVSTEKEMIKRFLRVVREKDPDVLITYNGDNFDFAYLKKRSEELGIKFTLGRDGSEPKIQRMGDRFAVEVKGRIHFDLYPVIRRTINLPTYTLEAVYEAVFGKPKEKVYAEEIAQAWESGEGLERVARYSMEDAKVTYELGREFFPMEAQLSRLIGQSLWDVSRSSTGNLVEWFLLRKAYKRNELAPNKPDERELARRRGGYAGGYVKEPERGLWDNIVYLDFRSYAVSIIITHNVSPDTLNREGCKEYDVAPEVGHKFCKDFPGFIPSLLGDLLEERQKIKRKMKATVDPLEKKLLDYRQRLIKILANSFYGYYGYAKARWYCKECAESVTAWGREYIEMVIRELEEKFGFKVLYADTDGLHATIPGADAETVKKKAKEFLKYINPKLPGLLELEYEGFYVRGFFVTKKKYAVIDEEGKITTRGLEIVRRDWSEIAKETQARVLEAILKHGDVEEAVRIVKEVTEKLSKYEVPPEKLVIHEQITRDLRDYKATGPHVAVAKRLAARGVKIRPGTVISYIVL
The following applies: crude enzyme; kobs relative to YAV, essentially inactive.

The target in data set [2] is T2, 9°N-7 DNA polymerase YAV C223S exo- (clone 9) C223S,L408Y,Y409A,P410V (Thermococcus sp. 9°N-7) (UniProt Q56366).
T2 sequence: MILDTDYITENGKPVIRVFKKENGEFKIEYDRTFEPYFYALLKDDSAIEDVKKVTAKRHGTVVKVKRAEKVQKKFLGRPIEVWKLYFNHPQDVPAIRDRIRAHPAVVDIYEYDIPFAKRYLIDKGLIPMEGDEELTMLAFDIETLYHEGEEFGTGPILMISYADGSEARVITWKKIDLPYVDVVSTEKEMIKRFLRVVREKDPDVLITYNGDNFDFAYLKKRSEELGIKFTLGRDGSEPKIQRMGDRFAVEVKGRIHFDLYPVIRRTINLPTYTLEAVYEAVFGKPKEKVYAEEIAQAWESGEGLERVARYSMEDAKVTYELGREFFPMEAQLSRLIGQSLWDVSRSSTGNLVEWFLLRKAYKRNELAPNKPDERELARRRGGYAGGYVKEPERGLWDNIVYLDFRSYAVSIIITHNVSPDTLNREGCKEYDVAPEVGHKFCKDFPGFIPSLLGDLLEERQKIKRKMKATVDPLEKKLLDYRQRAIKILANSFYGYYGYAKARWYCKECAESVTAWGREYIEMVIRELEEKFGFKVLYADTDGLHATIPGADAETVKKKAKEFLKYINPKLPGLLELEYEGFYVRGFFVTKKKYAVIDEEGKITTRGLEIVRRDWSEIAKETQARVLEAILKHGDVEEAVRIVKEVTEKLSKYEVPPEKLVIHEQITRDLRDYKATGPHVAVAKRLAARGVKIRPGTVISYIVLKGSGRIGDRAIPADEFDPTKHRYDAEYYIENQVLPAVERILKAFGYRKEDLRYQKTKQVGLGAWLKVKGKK
Conditions: burst kobs, DNA:pol 5:1; biphasic, burst amplitude 19%.

The target in data set [3] is T3, 9°N-7 YAV C223S exo- K705A (Thermococcus sp. 9°N-7, UniProt Q56366 SEQ:1-775).
T3 chain: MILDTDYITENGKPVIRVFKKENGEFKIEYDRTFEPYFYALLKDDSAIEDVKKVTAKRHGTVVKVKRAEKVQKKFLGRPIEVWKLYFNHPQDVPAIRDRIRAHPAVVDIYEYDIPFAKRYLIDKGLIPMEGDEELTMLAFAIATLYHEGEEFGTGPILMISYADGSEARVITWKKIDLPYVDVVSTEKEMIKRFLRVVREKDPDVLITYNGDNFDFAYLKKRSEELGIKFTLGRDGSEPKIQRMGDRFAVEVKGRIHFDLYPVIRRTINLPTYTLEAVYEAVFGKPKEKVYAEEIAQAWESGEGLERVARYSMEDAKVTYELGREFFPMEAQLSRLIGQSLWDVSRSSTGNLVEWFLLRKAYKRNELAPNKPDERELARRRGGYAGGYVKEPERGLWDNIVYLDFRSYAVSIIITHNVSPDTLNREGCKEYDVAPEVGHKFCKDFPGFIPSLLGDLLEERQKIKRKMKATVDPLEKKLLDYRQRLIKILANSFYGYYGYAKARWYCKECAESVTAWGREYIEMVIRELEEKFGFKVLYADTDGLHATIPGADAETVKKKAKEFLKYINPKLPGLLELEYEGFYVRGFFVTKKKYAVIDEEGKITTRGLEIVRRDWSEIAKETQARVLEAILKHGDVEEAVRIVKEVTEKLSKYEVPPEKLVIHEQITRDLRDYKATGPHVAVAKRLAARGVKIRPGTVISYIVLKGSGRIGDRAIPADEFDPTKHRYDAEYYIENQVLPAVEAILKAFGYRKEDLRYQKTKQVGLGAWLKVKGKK
The following applies: burst kobs, DNA:pol 5:1; biphasic, burst amplitude ~28%.

For data set [4], the target named is T4, 9°N-7 YAV C223S exo- R713A (Thermococcus sp. 9°N-7) (UniProt Q56366).
T4 sequence: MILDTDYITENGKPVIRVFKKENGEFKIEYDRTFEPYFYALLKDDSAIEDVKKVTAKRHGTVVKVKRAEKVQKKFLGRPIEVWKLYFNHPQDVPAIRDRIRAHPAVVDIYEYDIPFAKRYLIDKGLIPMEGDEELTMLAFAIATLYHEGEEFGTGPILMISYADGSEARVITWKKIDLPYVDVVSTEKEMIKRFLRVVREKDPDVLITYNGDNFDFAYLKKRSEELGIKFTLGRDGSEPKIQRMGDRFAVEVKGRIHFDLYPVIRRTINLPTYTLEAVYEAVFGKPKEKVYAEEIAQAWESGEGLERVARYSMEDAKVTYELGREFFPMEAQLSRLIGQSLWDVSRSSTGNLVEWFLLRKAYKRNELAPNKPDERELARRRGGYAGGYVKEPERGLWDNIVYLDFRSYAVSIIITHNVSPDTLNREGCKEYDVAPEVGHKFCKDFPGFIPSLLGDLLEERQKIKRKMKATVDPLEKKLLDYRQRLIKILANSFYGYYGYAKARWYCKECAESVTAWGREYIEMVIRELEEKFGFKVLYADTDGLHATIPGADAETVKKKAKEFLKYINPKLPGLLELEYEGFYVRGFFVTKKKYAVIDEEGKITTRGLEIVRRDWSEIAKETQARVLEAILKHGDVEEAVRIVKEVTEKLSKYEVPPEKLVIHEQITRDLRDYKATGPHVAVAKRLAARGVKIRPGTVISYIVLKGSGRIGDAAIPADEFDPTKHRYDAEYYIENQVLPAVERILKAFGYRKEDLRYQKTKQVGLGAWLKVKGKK
The following applies: kobs, DNA:pol 5:1; single exponential, amplitude ~90%.

Data set [5] concerns the target T5, 9°N-7 YAV C223S exo- R743A (Thermococcus sp. 9°N-7) (UniProt Q56366).
T5 sequence: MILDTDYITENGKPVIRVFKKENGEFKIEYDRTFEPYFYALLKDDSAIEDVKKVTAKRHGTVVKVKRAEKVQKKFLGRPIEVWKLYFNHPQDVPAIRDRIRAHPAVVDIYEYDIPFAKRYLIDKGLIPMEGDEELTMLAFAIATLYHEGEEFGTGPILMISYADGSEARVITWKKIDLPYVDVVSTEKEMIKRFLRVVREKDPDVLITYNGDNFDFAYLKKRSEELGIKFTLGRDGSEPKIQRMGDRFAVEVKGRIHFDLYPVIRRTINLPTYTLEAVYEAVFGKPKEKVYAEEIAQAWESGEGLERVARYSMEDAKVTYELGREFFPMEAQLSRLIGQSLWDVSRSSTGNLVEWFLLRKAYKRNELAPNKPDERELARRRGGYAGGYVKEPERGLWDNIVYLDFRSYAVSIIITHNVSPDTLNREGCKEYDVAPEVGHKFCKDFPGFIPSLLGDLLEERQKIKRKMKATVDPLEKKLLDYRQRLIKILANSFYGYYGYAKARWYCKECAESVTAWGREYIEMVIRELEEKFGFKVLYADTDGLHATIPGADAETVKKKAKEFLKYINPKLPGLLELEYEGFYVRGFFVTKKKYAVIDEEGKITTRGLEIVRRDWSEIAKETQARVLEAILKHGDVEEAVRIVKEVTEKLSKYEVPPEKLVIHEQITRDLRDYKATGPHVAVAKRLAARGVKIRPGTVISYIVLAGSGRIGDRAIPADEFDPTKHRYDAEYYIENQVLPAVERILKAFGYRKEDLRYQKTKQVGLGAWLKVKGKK
The following applies: kobs, DNA:pol 5:1; single exponential, amplitude ~90%.

Data set [6] concerns the target T3, 9°N-7 YAV C223S exo- K705A. Briefly: washing assay; similar response to clone 9. Conditions: hairpin with 5' overhang. The procedure: Once washed, each well was incubated with a 20 μl aliquot of 500 nM enzyme (clone 9, K705A, R713A or R743A mutants) at 45° C. for 30 minutes. Post incubation, each well was washed with […] 10 mM Tris pH 8.0, 10 mM EDTA including varying concentrations of NaCl (0, 0.05, 0.1, 0.3, 0.4, 0.75, 1.0, 2.0 M) and then […] MilliQ water. Wells were subsequently pre-equilibrated with enzymology buffer prior to a further incubation of 20 μl of 2 μM ffT-N3-647 at 45° C. for 30 minutes. Wells were washed with 3×100 ml high salt wash buffer (10 mM Tris pH 8.0, 1M NaCl, 10 mM EDTA) and then 3×100 ml MilliQ water. Strips scanned on Typhoon fluorescence imager (y5 filter, PMT=500 V).

With 10 A hairpin DNA, the relative kobs (% of YAV) in data set [1] is 21%. Besides, the activity in data set [2] amounted to 0.06 s⁻¹; in data set [3], 0.06 s⁻¹; in data set [4] it was 0.01 s⁻¹; in data set [5], 0.004 s⁻¹.

B1: A-template hairpin oligo 815 (structured_DNA)
DNA: CGATCACGATCACGATCACGATCACGATCACGATCACGCTGATGTGCATGCTGTTGTTTTTTTACAACAGCATGCACATCAGCG
modifications: 5'-amino, surface coupled
B1: the binding result in data set [6] is listed as “binds”.
